Measured values reported in patent US20140087995A1 (published 2014).
Numbered stars: 1 amine (or outer) side, 2 acyl side, 3 side chain; on linkers, the order of the positions; unused ones are H or OH. Bridge positions count the residues as written; N and C are the ends. Side chains are listed from the residue outwards. Ends that are not written are not given here. * marks the point of attachment. C20 diacid = O=C(O)CCCCCCCCCCCCCCCCCCC(=O)*; γGlu = O=C(O)[C@H](CCC(=O)[*:2])N[*:1]; AEEA = NCCOCCOCC(=O)O

B1: N^α1-[(4S)-4-carboxy-4-(19-carboxynonadecanoylamino)butanoyl]-[Glu14,Arg17,Pro21,Pro27,Pro31]-h-amylin (peptide)
peptide: {C20 diacid-γGlu}-KCNTATCATQRLAEFLRHSSPNFGAIPSSTPVGSNTY-NH2
modifications: disulfide 2-7
SMILES: CC[C@H](C)[C@H](NC(=O)[C@H](C)NC(=O)CNC(=O)[C@H](Cc1ccccc1)NC(=O)[C@H](CC(N)=O)NC(=O)[C@@H]1CCCN1C(=O)[C@H](CO)NC(=O)[C@H](CO)NC(=O)[C@H](Cc1c[nH]cn1)NC(=O)[C@H](CCCNC(=N)N)NC(=O)[C@H](CC(C)C)NC(=O)[C@H](Cc1ccccc1)NC(=O)[C@H](CCC(=O)O)NC(=O)[C@H](C)NC(=O)[C@H](CC(C)C)NC(=O)[C@H](CCCNC(=N)N)NC(=O)[C@H](CCC(N)=O)NC(=O)[C@@H](NC(=O)[C@H](C)NC(=O)[C@@H]1CSSC[C@H](NC(=O)[C@H](CCCCN)NC(=O)CC[C@H](NC(=O)CCCCCCCCCCCCCCCCCCC(=O)O)C(=O)O)C(=O)N[C@@H](CC(N)=O)C(=O)N[C@@H]([C@@H](C)O)C(=O)N[C@@H](C)C(=O)N[C@@H]([C@@H](C)O)C(=O)N1)[C@@H](C)O)C(=O)N1CCC[C@H]1C(=O)N[C@@H](CO)C(=O)N[C@@H](CO)C(=O)N[C@H](C(=O)N1CCC[C@H]1C(=O)N[C@H](C(=O)NCC(=O)N[C@@H](CO)C(=O)N[C@@H](CC(N)=O)C(=O)N[C@H](C(=O)N[C@@H](Cc1ccc(O)cc1)C(N)=O)[C@@H](C)O)C(C)C)[C@@H](C)O
notes: h-amylin derivative; disulfide bridge and C-terminal amide as told for human amylin; also called compound 31
B2: N^α1-[(4S)-4-carboxy-4-(19-carboxynonadecanoylamino)butanoyl]-[Glu14,Arg17,Pro21,Pro27,Pro34]-h-amylin (peptide)
peptide: {C20 diacid-γGlu}-KCNTATCATQRLAEFLRHSSPNFGAIPSSTNVGPNTY-NH2
modifications: disulfide 2-7
SMILES: CC[C@H](C)[C@H](NC(=O)[C@H](C)NC(=O)CNC(=O)[C@H](Cc1ccccc1)NC(=O)[C@H](CC(N)=O)NC(=O)[C@@H]1CCCN1C(=O)[C@H](CO)NC(=O)[C@H](CO)NC(=O)[C@H](Cc1c[nH]cn1)NC(=O)[C@H](CCCNC(=N)N)NC(=O)[C@H](CC(C)C)NC(=O)[C@H](Cc1ccccc1)NC(=O)[C@H](CCC(=O)O)NC(=O)[C@H](C)NC(=O)[C@H](CC(C)C)NC(=O)[C@H](CCCNC(=N)N)NC(=O)[C@H](CCC(N)=O)NC(=O)[C@@H](NC(=O)[C@H](C)NC(=O)[C@@H]1CSSC[C@H](NC(=O)[C@H](CCCCN)NC(=O)CC[C@H](NC(=O)CCCCCCCCCCCCCCCCCCC(=O)O)C(=O)O)C(=O)N[C@@H](CC(N)=O)C(=O)N[C@@H]([C@@H](C)O)C(=O)N[C@@H](C)C(=O)N[C@@H]([C@@H](C)O)C(=O)N1)[C@@H](C)O)C(=O)N1CCC[C@H]1C(=O)N[C@@H](CO)C(=O)N[C@@H](CO)C(=O)N[C@H](C(=O)N[C@@H](CC(N)=O)C(=O)N[C@H](C(=O)NCC(=O)N1CCC[C@H]1C(=O)N[C@@H](CC(N)=O)C(=O)N[C@H](C(=O)N[C@@H](Cc1ccc(O)cc1)C(N)=O)[C@@H](C)O)C(C)C)[C@@H](C)O
notes: h-amylin derivative; disulfide bridge and C-terminal amide as told for human amylin; also called compound 32
B3: N^α1-[(4S)-4-carboxy-4-(19-carboxynonadecanoylamino)butanoyl]-[His14,Arg17,Pro21,Pro27,Glu35]-h-amylin (peptide)
peptide: {C20 diacid-γGlu}-KCNTATCATQRLAHFLRHSSPNFGAIPSSTNVGSETY-NH2
modifications: disulfide 2-7
SMILES: CC[C@H](C)[C@H](NC(=O)[C@H](C)NC(=O)CNC(=O)[C@H](Cc1ccccc1)NC(=O)[C@H](CC(N)=O)NC(=O)[C@@H]1CCCN1C(=O)[C@H](CO)NC(=O)[C@H](CO)NC(=O)[C@H](Cc1c[nH]cn1)NC(=O)[C@H](CCCNC(=N)N)NC(=O)[C@H](CC(C)C)NC(=O)[C@H](Cc1ccccc1)NC(=O)[C@H](Cc1c[nH]cn1)NC(=O)[C@H](C)NC(=O)[C@H](CC(C)C)NC(=O)[C@H](CCCNC(=N)N)NC(=O)[C@H](CCC(N)=O)NC(=O)[C@@H](NC(=O)[C@H](C)NC(=O)[C@@H]1CSSC[C@H](NC(=O)[C@H](CCCCN)NC(=O)CC[C@H](NC(=O)CCCCCCCCCCCCCCCCCCC(=O)O)C(=O)O)C(=O)N[C@@H](CC(N)=O)C(=O)N[C@@H]([C@@H](C)O)C(=O)N[C@@H](C)C(=O)N[C@@H]([C@@H](C)O)C(=O)N1)[C@@H](C)O)C(=O)N1CCC[C@H]1C(=O)N[C@@H](CO)C(=O)N[C@@H](CO)C(=O)N[C@H](C(=O)N[C@@H](CC(N)=O)C(=O)N[C@H](C(=O)NCC(=O)N[C@@H](CO)C(=O)N[C@@H](CCC(=O)O)C(=O)N[C@H](C(=O)N[C@@H](Cc1ccc(O)cc1)C(N)=O)[C@@H](C)O)C(C)C)[C@@H](C)O
notes: h-amylin derivative; disulfide bridge and C-terminal amide as told for human amylin; also called compound 30
B4: N^ε1-[2-[2-[2-[[2-[2-[2-[[(4S)-4-carboxy-4-(19-carboxynonadecanoylamino)butanoyl]amino]ethoxy]ethoxy]acetyl]amino]ethoxy]ethoxy]acetyl]-[Arg17,Pro21,Pro27,Glu35 … (peptide)
peptide: K([AEEA-AEEA-γGlu-C20 diacid])CNTATCATQRLANFLRHSSPNFGAIPSSTNVGSETY-NH2
modifications: disulfide 2-7; N-terminus assumed
SMILES: CC[C@H](C)[C@H](NC(=O)[C@H](C)NC(=O)CNC(=O)[C@H](Cc1ccccc1)NC(=O)[C@H](CC(N)=O)NC(=O)[C@@H]1CCCN1C(=O)[C@H](CO)NC(=O)[C@H](CO)NC(=O)[C@H](Cc1c[nH]cn1)NC(=O)[C@H](CCCNC(=N)N)NC(=O)[C@H](CC(C)C)NC(=O)[C@H](Cc1ccccc1)NC(=O)[C@H](CC(N)=O)NC(=O)[C@H](C)NC(=O)[C@H](CC(C)C)NC(=O)[C@H](CCCNC(=N)N)NC(=O)[C@H](CCC(N)=O)NC(=O)[C@@H](NC(=O)[C@H](C)NC(=O)[C@@H]1CSSC[C@H](NC(=O)[C@@H](N)CCCCNC(=O)COCCOCCNC(=O)COCCOCCNC(=O)CC[C@H](NC(=O)CCCCCCCCCCCCCCCCCCC(=O)O)C(=O)O)C(=O)N[C@@H](CC(N)=O)C(=O)N[C@@H]([C@@H](C)O)C(=O)N[C@@H](C)C(=O)N[C@@H]([C@@H](C)O)C(=O)N1)[C@@H](C)O)C(=O)N1CCC[C@H]1C(=O)N[C@@H](CO)C(=O)N[C@@H](CO)C(=O)N[C@H](C(=O)N[C@@H](CC(N)=O)C(=O)N[C@H](C(=O)NCC(=O)N[C@@H](CO)C(=O)N[C@@H](CCC(=O)O)C(=O)N[C@H](C(=O)N[C@@H](Cc1ccc(O)cc1)C(N)=O)[C@@H](C)O)C(C)C)[C@@H](C)O
notes: h-amylin derivative; disulfide bridge and C-terminal amide as told for human amylin; also called compound 25
B5: N^ε1-[2-[2-[2-[[(4S)-4-carboxy-4-(19-carboxynonadecanoylamino)butanoyl]amino]ethoxy]ethoxy]acetyl]-[Arg17,Pro21,Pro27,Glu35]-h-amylin (peptide)
peptide: K([AEEA-γGlu-C20 diacid])CNTATCATQRLANFLRHSSPNFGAIPSSTNVGSETY-NH2
modifications: disulfide 2-7; N-terminus assumed
SMILES: CC[C@H](C)[C@H](NC(=O)[C@H](C)NC(=O)CNC(=O)[C@H](Cc1ccccc1)NC(=O)[C@H](CC(N)=O)NC(=O)[C@@H]1CCCN1C(=O)[C@H](CO)NC(=O)[C@H](CO)NC(=O)[C@H](Cc1c[nH]cn1)NC(=O)[C@H](CCCNC(=N)N)NC(=O)[C@H](CC(C)C)NC(=O)[C@H](Cc1ccccc1)NC(=O)[C@H](CC(N)=O)NC(=O)[C@H](C)NC(=O)[C@H](CC(C)C)NC(=O)[C@H](CCCNC(=N)N)NC(=O)[C@H](CCC(N)=O)NC(=O)[C@@H](NC(=O)[C@H](C)NC(=O)[C@@H]1CSSC[C@H](NC(=O)[C@@H](N)CCCCNC(=O)COCCOCCNC(=O)CC[C@H](NC(=O)CCCCCCCCCCCCCCCCCCC(=O)O)C(=O)O)C(=O)N[C@@H](CC(N)=O)C(=O)N[C@@H]([C@@H](C)O)C(=O)N[C@@H](C)C(=O)N[C@@H]([C@@H](C)O)C(=O)N1)[C@@H](C)O)C(=O)N1CCC[C@H]1C(=O)N[C@@H](CO)C(=O)N[C@@H](CO)C(=O)N[C@H](C(=O)N[C@@H](CC(N)=O)C(=O)N[C@H](C(=O)NCC(=O)N[C@@H](CO)C(=O)N[C@@H](CCC(=O)O)C(=O)N[C@H](C(=O)N[C@@H](Cc1ccc(O)cc1)C(N)=O)[C@@H](C)O)C(C)C)[C@@H](C)O
notes: h-amylin derivative; disulfide bridge and C-terminal amide as told for human amylin; also called compound 26
B6: N^ε1-[2-[2-[2-[[(4S)-4-carboxy-4-(19-carboxynonadecanoylamino)butanoyl]amino]ethoxy]ethoxy]acetyl]-[Arg17,Pro21,Pro27,Pro31]-h-amylin (peptide)
peptide: K([AEEA-γGlu-C20 diacid])CNTATCATQRLANFLRHSSPNFGAIPSSTPVGSNTY-NH2
modifications: disulfide 2-7; N-terminus assumed
SMILES: CC[C@H](C)[C@H](NC(=O)[C@H](C)NC(=O)CNC(=O)[C@H](Cc1ccccc1)NC(=O)[C@H](CC(N)=O)NC(=O)[C@@H]1CCCN1C(=O)[C@H](CO)NC(=O)[C@H](CO)NC(=O)[C@H](Cc1c[nH]cn1)NC(=O)[C@H](CCCNC(=N)N)NC(=O)[C@H](CC(C)C)NC(=O)[C@H](Cc1ccccc1)NC(=O)[C@H](CC(N)=O)NC(=O)[C@H](C)NC(=O)[C@H](CC(C)C)NC(=O)[C@H](CCCNC(=N)N)NC(=O)[C@H](CCC(N)=O)NC(=O)[C@@H](NC(=O)[C@H](C)NC(=O)[C@@H]1CSSC[C@H](NC(=O)[C@@H](N)CCCCNC(=O)COCCOCCNC(=O)CC[C@H](NC(=O)CCCCCCCCCCCCCCCCCCC(=O)O)C(=O)O)C(=O)N[C@@H](CC(N)=O)C(=O)N[C@@H]([C@@H](C)O)C(=O)N[C@@H](C)C(=O)N[C@@H]([C@@H](C)O)C(=O)N1)[C@@H](C)O)C(=O)N1CCC[C@H]1C(=O)N[C@@H](CO)C(=O)N[C@@H](CO)C(=O)N[C@H](C(=O)N1CCC[C@H]1C(=O)N[C@H](C(=O)NCC(=O)N[C@@H](CO)C(=O)N[C@@H](CC(N)=O)C(=O)N[C@H](C(=O)N[C@@H](Cc1ccc(O)cc1)C(N)=O)[C@@H](C)O)C(C)C)[C@@H](C)O
notes: h-amylin derivative; disulfide bridge and C-terminal amide as told for human amylin; also called compound 49

Each binder was assayed against T1, human calcitonin receptor (human, UniProt P30988 25-474) (assay: cell-based or functional assay).
T1 sequence (looked up): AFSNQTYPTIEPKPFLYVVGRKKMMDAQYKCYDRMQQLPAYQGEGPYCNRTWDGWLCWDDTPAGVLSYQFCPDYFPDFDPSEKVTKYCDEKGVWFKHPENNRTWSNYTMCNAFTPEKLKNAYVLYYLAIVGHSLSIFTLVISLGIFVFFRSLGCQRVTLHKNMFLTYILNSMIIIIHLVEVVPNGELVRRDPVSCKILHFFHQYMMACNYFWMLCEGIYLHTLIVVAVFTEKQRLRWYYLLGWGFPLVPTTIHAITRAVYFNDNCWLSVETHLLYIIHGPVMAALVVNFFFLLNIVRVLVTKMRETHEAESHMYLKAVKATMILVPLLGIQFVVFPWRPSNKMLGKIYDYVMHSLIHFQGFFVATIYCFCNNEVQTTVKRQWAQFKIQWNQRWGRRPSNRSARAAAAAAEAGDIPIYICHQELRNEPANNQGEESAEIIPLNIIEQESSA

Going from B1 to B2, the “hCTR funct. EC50” value falls from 0.717 nM to 0.327 nM (2.2-fold).

Going from B3 to B4, the “hCTR funct. EC50” value rises from 1.68 nM to 10 nM (6-fold).

First: B5
Second: B6
The “hCTR funct. EC50” value of the first is 2.7-fold higher: 6.34 nM for the first, 2.39 nM for the second.
